Source: EP4218932A2 (GammaDelta Therapeutics Limited, dated 2023)
Changes are numbered by the printed parent chain.

B1: 1245_P01_G06 (antibody, V domains shown)
VH: QVQLVESGGGLVKPGGSLRLSCAASGFTFSDYYMSWIRQAPGKGLEWVSYISSSGSTIYYADSVKGRFTISRDNAKNSLYLQMNSLRAEDTAVYYCARHSWNDAFDVWGQGTLVTVSS
VL: not shown
B2: 1245_P01_E07 (antibody, human IgG1, V domains shown)
VH: B1 VH with H99V, S100D, W101Y, N102A, V107I
VL: DIQMTQSPSSLSASVGDRVTIACRAGQSIGTYLNWYQQKPGKAPKLLIYVASSLQSGVPSRFSGSGSGTEFTLTISSLQPEDFATYYCQQSYSTLLTFGRGTKVEIK
B3: 1245_P02_G04 (antibody, human IgG1, V domains shown)
VH: QVQLQQSGPGLVKPSQTLSLTCAISGDSVSSKSAAWNWIRQSPSRGLEWLGRTYYRSKWSTDYAASVKSRITINPDTSKNQLSLQLNSVTPEDTAVYYCARTWSGYVDVWGQGTLVTVSS
VL: DIQMTQSPPALSASVGDRVTITCRASQDINDWLAWYQHKPGKAPKLLIYDASSLESGVPSRFSGSGSGTEFTLTISSLQPDDFATYYCQQSYSTPQVTFGQGTRLEIK
B4: 1139_P01_E04 (antibody, human IgG1, V domains shown)
VH: QVQLQQSGPGLVKPSQTLSLTCAISGDSVSSNSAAWNWIRQSPSRGLEWLGRTYYRSKWYNDYAVSVRSRITINPDTSKNQFSLQLNSVTPEDTAVYYCARSWNDAFDIWGQGTTVTVSS
VL: DIVMTQSPSTLSASIGDRVTITCRAGQSISTWLAWYQQKPGKAPKLLIYDASSLESGVPLRFSGSGSGTDFTLTISSLQPEDFATYYCQQSYSTPLTFGGGTKVEIK
B5: 1245_P01_G09 (antibody, human IgG1, V domains shown)
VH: QVQLQQSGPGLVKPSQTLSLTCAISGDSVSSNSAAWNWIRQSPSRGLEWLGRTYYGSKWYNEYALSVKSRIIINPDTSKNQFSLQLNSVTPEDTAVYYCARDYYYSMDVWGQGTLVTVSS
VL: B4 VL with D70E, T74A, E81D, L96V, G100Q
B6: 1252_P01_C08 (antibody, human IgG1, V domains shown)
VH: EVQLLESGGGLVQPGRSLRLSCAASGFTVSSNYMSWVRQAPGKGLEWVSVIYSGGSTYYADSVKGRFTISRDNSKNTLYLQMNSLRAEDTAVYYCASPIELGAFDIWGQGTLVTVSS
VL: SSYELTQPPSVSVAPGKTARITCGGNNIGSQSVHWYQQKPGQAPMLVIYYDSDRPSGIPERFSGSNSGNTATLTISRVEAGDEADYYCQVWDSSSDHVVFGGGTKLTVL

Each binder was assayed against Vδ1 chain of the γδ TCR on Vδ1+ γδ T cells (human) (assay: cell-based or functional assay).

T cell degranulation (EC50 µg/ml - 3 donors) | Binder | Killing assay (EC50 µg/ml - 2 or 3 donors)
0.001 µg/mL | B1 | –
– | B2 | 0.06 µg/mL
0.002 µg/mL | B3 | 0.1 µg/mL
0.005 µg/mL | B4 | –
0.001 µg/mL | B5 | –
– | B6 | 0.02 µg/mL
